This series has as its system Renilla luciferase RNA. The experiment in a line: Barcoded aptazyme variant library screen: un-cleaved Renilla luciferase RNA by barcode read counts, HEK293-T cells. The settings on record: un-cleaved Renilla luciferase RNA, HEK293-T cells cultured with 1 mM theophylline (ON) over without theophylline (OFF); barcode read counts, triplicate. It is filed as cell-based. The gist of the method:
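Barcode sequencing of cDNA versus DNA, normalized per aptazyme, gave the un-cleaved Renilla luciferase RNA fraction and fold-change with versus without theophylline (triplicates). Library: T3H48 ribozyme with one of seven theophylline aptamer variants inserted at each position, placed in the Renilla 3′ UTR of a dual-luciferase vector.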

Results on 28 molecules are retold here after patent US20260167959A1, “APTAZYME-BASED REGULATABLE GENE EXPRESSION SYSTEMS” (REJUVENATE BIO INC, priority 2022, published 2026).

B1: RA111 (nucleic acid)
DNA: GCGCGTCCTAGTGATACCAGCATCGTCTTGATGCCCTTGGCAGCACTGGATTCGCGGAAACGCGTACATCCAGCTGACGAGTCCCAAATAGGACGAAACGCGC
modifications: expressed or natural sequence
For B1, the “Fold change in RNA expression between the ON state and the OFF state” value (“Fold change” below) was 1.6 fold.

B2: RA010 (nucleic acid)
DNA: GCGCGTCCTGGACGAGAATACCAGCATCGTCTTGATGCCCTTGGAAGTCTCGTTCGCGGAAACGCGTACATCCAGCTGACGAGTCCCAAATAGGACGAAACGCGC
modifications: expressed or natural sequence
Regarding B2, the “Fold change” value is 3.6 fold.

B3: RA113 (nucleic acid)
DNA: GCGCGTCCTGGATTCGCGGAAACGCGTACATCCAGCTGACGAGTCCCAAATAGGACGAAACGCGC
modifications: expressed or natural sequence
For B3, the “Fold change” value is recorded as 1.5 fold.

B4: RA099 (nucleic acid)
DNA: GCGCGTCCTGGATTCGCGGAAACGCGTACATAGTGATACCAGCATCGTCTTGATGCCCTTGGCAGCACTCCAGCTGACGAGTCCCAAATAGGACGAAACGCGC
modifications: expressed or natural sequence
On to B4, for which the “Fold change” value was 1.6 fold.

B5: RA095 (nucleic acid)
DNA: GCGCGTCAGAATACCAGCATCGTCTTGATGCCCTTGGAAGTCTCTGGATTCGCGGAAACGCGTACATCCAGCTGACGAGTCCCAAATAGGACGAAACGCGC
modifications: expressed or natural sequence
With B5, the “Fold change” value is listed as 1.6 fold.

B6: RA102 (nucleic acid)
DNA: GCGCGTCGGAATACCAGCATCGTCTTGATGCCCTTGGAAGTCCCTGGATTCGCGGAAACGCGTACATCCAGCTGACGAGTCCCAAATAGGACGAAACGCGC
modifications: expressed or natural sequence
As to B6, the “Fold change” value is on record as 1.6 fold.

B7: RA105 (nucleic acid)
DNA: GCGCGTCCTGGAGAATACCAGCATCGTCTTGATGCCCTTGGAAGTCTCGATTCGCGGAAACGCGTACATCCAGCTGACGAGTCCCAAATAGGACGAAACGCGC
modifications: expressed or natural sequence
Turning to B7, the “Fold change” value came out at 1.6 fold.

B8: RA097 (nucleic acid)
DNA: GCGCGTCCTGGATTCGCGGAAACGCGTACATCCAGCTGACGAGTCCCAGAATACCAGCATCGTCTTGATGCCCTTGGAAGTCTAAATAGGACGAAACGCGC
modifications: expressed or natural sequence
Consider B8, for which the “Fold change” value worked out at 1.6 fold.

B9: RA009 (nucleic acid)
DNA: GCGCGTCCTGGATTCGCGGAAACGCGTACATCCAGCTGACGAGTCCCAAATAGGACGACCGGAATACCAGCATCGTCTTGATGCCCTTGGAAGTCCGGAACGCGC
modifications: expressed or natural sequence
B9: the “Fold change” value is given as 3.8 fold.

B10: RA115 (nucleic acid)
DNA: GCGCGTCCTGGATTCGCGGAAACGCGTACATCCAGCTGACGAGTCCCAAATAGGACGAGAATACCAGCATCGTCTTGATGCCCTTGGAAGTCTAAACGCGC
modifications: expressed or natural sequence
Consider B10, for which the “Fold change” value was determined as 1.5 fold.

B11: RA101 (nucleic acid)
DNA: GCGCGTCCTGGATTCGCGGAAACGCGTACATCCAGCTGACGAGTCCCAAATAGGACGAACGGAATACCAGCATCGTCTTGATGCCCTTGGAAGTCCGACGCGC
modifications: expressed or natural sequence
Regarding B11, the “Fold change” value was found to be 1.6 fold.

B12: RA100 (nucleic acid)
DNA: GCGCGTCCTGGATTCGCGGAAACGCGTACATCCAGCTGACCGGAATACCAGCATCGTCTTGATGCCCTTGGAAGTCCGGAGTCCCAAATAGGACGAAACGCGC
modifications: expressed or natural sequence
For the molecule B12, the “Fold change” value is 1.6 fold.

B13: RA107 (nucleic acid)
DNA: GCGCGTCCTGGATTCGCGGAAACGCGTACATCCCGGAATACCAGCATCGTCTTGATGCCCTTGGAAGTCCGAGCTGACGAGTCCCAAATAGGACGAAACGCGC
modifications: expressed or natural sequence
As to B13, the “Fold change” value was 1.6 fold.

B14: RA094 (nucleic acid)
DNA: GCGCGTCCTGGATTCGCGGAGGAATACCAGCATCGTCTTGATGCCCTTGGAAGTCCAACGCGTACATCCAGCTGACGAGTCCCAAATAGGACGAAACGCGC
modifications: expressed or natural sequence
Consider B14, for which the “Fold change” value was 1.6 fold.

B15: RA110 (nucleic acid)
DNA: GCGCGTCCTGGGGAATACCAGCATCGTCTTGATGCCCTTGGAAGTCCATTCGCGGAAACGCGTACATCCAGCTGACGAGTCCCAAATAGGACGAAACGCGC
modifications: expressed or natural sequence
For the molecule B15, the “Fold change” value stood at 1.6 fold.

B16: RA109 (nucleic acid)
DNA: GCGCCGAGAATACCAGCATCGTCTTGATGCCCTTGGAAGTCTCGGTCCTGGATTCGCGGAAACGCGTACATCCAGCTGACGAGTCCCAAATAGGACGAAACGCGC
modifications: expressed or natural sequence
For the molecule B16, the “Fold change” value stood at 1.6 fold.

B17: RA011 (nucleic acid)
DNA: GCGCGTCCTGGATTCGCGGAAACGCGTACATCCAGCTGACGAGTCCCGGAATACCAGCATCGTCTTGATGCCCTTGGAAGTCCGCAAATAGGACGAAACGCGC
modifications: expressed or natural sequence
Take B17: the “Fold change” value turned out to be 3.6 fold.

B18: RA117 (nucleic acid)
DNA: GCGCGTCCTGGATCGGAATACCAGCATCGTCTTGATGCCCTTGGAAGTCCGTCGCGGAAACGCGTACATCCAGCTGACGAGTCCCAAATAGGACGAAACGCGC
modifications: expressed or natural sequence
As for B18, the “Fold change” value stood at 1.5 fold.

B19: RA108 (nucleic acid)
DNA: GCGCGTCCTGGATTCGCGGCCGGAATACCAGCATCGTCTTGATGCCCTTGGAAGTCCGGAAACGCGTACATCCAGCTGACGAGTCCCAAATAGGACGAAACGCGC
modifications: expressed or natural sequence
For B19, the “Fold change” value worked out at 1.6 fold.

B20: RA114 (nucleic acid)
DNA: GCGCGTCCTGGATTCGCGGAAACGCGTACATCCAGCTGACGAGTCCCAAATAGGACGAGGAATACCAGCATCGTCTTGATGCCCTTGGAAGTCCAACGCGC
modifications: expressed or natural sequence
For the molecule B20, the “Fold change” value came to 1.5 fold.

B21: RA106 (nucleic acid)
DNA: GCGCGTCCTGGATTCGCGGAAACGCGTACATCCAGCTGACCGGAATACCAGCATCGTCTTGATGCCCTTGGAAGTCCGGCGAGTCCCAAATAGGACGAAACGCGC
modifications: expressed or natural sequence
For B21, the “Fold change” value turned out to be 1.6 fold.

B22: RA116 (nucleic acid)
DNA: GCGCGTCCTGGATTCGCGGAAACGCGTACATCCAGCTGACGAGTCCCAAATAGGGAGAATACCAGCATCGTCTTGATGCCCTTGGAAGTCTCACGAAACGCGC
modifications: expressed or natural sequence
B22: the “Fold change” value came out at 1.5 fold.

B23: RA096 (nucleic acid)
DNA: GCGCGTCAGTGATACCAGCATCGTCTTGATGCCCTTGGCAGCACTCTGGATTCGCGGAAACGCGTACATCCAGCTGACGAGTCCCAAATAGGACGAAACGCGC
modifications: expressed or natural sequence
With B23, the “Fold change” value is reported as 1.6 fold.

B24: RA112 (nucleic acid)
DNA: GCGCGTCCTGGATTCGCGGAAACGCGTACATCCAGGGAATACCAGCATCGTCTTGATGCCCTTGGAAGTCCCTGACGAGTCCCAAATAGGACAAAACGCGC
modifications: expressed or natural sequence
With B24, the “Fold change” value stood at 1.5 fold.

B25: RA104 (nucleic acid)
DNA: GCGCGTCCTGGATTCGCGGAAACGCGTACATCCAGCTGACGAGTCCCAAATCGAGAATACCAGCATCGTCTTGATGCCCTTGGAAGTCTCGAGGACGAAACGCGC
modifications: expressed or natural sequence
B25: the “Fold change” value was determined as 1.6 fold.

B26: RA103 (nucleic acid)
DNA: GCGCGTCCTGGATTCGCGGAAACGCGTACATCCAGCTGACGGAATACCAGCATCGTCTTGATGCCCTTGGAAGTCCGAGTCCCAAATAGGACGAAACGCGC
modifications: expressed or natural sequence
As to B26, the “Fold change” value is recorded as 1.6 fold.

B27: RA093 (nucleic acid)
DNA: AGTGATACCAGCATCGTCTTGATGCCCTTGGCAGCACTGCGCGTCCTGGATTCGCGGAAACGCGTACATCCAGCTGACGAGTCCCAAATAGGACGAAACGCGC
modifications: expressed or natural sequence
As to B27, the “Fold change” value is 1.6 fold.

B28: RA098 (nucleic acid)
DNA: GCGCGTCCTGGATTCGCGGAAACGCGTACATCCCCGGAATACCAGCATCGTCTTGATGCCCTTGGAAGTCCGGAGCTGACGAGTCCCAAATAGGACGAAACGCGC
modifications: expressed or natural sequence
As for B28, the “Fold change” value is given as 1.6 fold.
